In US20120316071A1 (published 2012):

Experiments:
[1] = biological target: T1, rHuman CD44/Fc Chimera, CF (R&D Systems Cat#3660-CD) (human, UniProt P16070 21-220); assay: ECL Multispot (MSD), antigen spotted on plate, Fab in solution; blank spot 292
[2] = biological target: rHuman HGF R/c-MET/Fc Chimera, CF (R&D Systems Cat#358-MT/CF) (human, UniProt P08581 25-932); assay: as above
[3] = biological target: T2, rHuman Notch-1/Fc Chimera, CF (R&D Systems Cat#3647-TK) (human); assay: as above
T2 chain: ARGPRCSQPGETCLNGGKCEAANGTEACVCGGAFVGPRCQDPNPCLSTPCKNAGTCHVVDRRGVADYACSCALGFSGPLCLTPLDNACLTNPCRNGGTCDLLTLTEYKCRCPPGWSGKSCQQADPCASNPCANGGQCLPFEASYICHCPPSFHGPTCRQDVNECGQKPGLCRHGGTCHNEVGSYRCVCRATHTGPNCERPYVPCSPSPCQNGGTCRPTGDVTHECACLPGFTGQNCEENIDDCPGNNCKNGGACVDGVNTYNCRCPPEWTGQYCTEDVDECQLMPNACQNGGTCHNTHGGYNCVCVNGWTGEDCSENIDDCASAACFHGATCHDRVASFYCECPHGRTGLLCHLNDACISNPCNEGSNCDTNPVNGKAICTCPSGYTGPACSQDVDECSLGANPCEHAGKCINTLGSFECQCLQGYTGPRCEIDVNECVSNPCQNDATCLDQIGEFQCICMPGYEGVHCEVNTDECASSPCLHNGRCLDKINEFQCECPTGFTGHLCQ

[4] = biological target: T3, rHuman Erythropoietin R/Fc Chimera, CF (R&D Systems Cat#963-ER) (human, UniProt P19235 25-250); assay: as above
[5] = biological target: T4, rHuman P-Cadherin/Fc Chimera, CF (R&D Systems Cat#861-PC) (human, UniProt P22223 108-654); assay: as above
[6] = biological target: T5, rHuman IGF-1 sR (insulin-like growth factor-1 soluble receptor), CF (R&D Systems Cat#391-GR) (human, UniProt P08069 31-932); assay: MSD ECL multispot assay, antigen spotted on plate, Fab in solution; blank spot of this row 166
T5 construct: Bought recombinant soluble receptor

[7] = biological target: T6, rHuman HGF R/c-MET/Fc Chimera, CF (R&D Systems Cat#358-MT/CF) (human, UniProt P08581 25-932); assay: as above
T6 construct: Bought recombinant protein; also called HGF R/Fc; not shown: Fc of the bought chimera

[8] = biological target: T7, rHuman P-Cadherin/Fc Chimera, CF (R&D Systems Cat#861-PC) (human, UniProt P22223 108-654); assay: as above
T7 construct: Bought recombinant protein; not shown: Fc of the bought chimera

[9] = biological target: T8, rHuman Erythropoietin R/Fc Chimera, CF (R&D Systems Cat#963-ER) (human, UniProt P19235 25-250); assay: as above
T8 construct: Bought recombinant protein; also called EPO R; EPO R/Fc; not shown: Fc of the bought chimera
T8 sequence (looked up): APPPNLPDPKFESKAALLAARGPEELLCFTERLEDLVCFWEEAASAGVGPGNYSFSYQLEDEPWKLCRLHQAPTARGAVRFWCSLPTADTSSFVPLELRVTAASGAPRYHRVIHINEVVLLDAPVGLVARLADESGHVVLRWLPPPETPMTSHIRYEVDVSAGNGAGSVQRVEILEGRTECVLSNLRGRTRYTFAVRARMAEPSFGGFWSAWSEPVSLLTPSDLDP

[10] = biological target: T9, rHuman CD44/Fc Chimera, CF (R&D Systems Cat#3660-CD) (human, UniProt P16070 21-220); assay: as above
T9 construct: Bought recombinant protein; not shown: Fc of the bought chimera

[11] = biological target: T10, Recombinant Human DLL4 (R&D Systems Cat#1506-D4/CF) (human, UniProt Q9NR61 27-524); assay: as above
T10 construct: Bought recombinant protein; also called delta-like protein 4; rHuman DLL4

[12] = biological target: T11, rHuman Notch-1/Fc Chimera, CF (R&D Systems Cat#3647-TK) (human, UniProt P46531 19-526); assay: as above
T11 construct: Bought recombinant protein; not shown: Fc of the bought chimera

[13] = biological target: T1, rHuman CD44/Fc Chimera, CF (R&D Systems …); assay: ECL Multispot (MSD), antigen spotted on plate, Fab in solution; blank spot 241
[14] = biological target: T2, rHuman Notch-1/Fc Chimera, CF (R&D …); assay: as above
[15] = biological target: T3, rHuman Erythropoietin R/Fc Chimera, CF …; assay: as above
[16] = biological target: T4, rHuman P-Cadherin/Fc Chimera, CF (R&D …); assay: as above
[17] = biological target: T12, rHuman ErbB2/Fc Chimera, CF (R&D Systems Cat#1129-ER) (human, UniProt P04626 23-652); assay: MSD ECL multispot assay, antigen spotted on plate, Fab in solution; blank spot of this row 255
T12 construct: Bought recombinant protein; not shown: Fc of the bought chimera

[18] = biological target: T5, rHuman IGF-1 sR (insulin-like growth …); assay: as above
[19] = biological target: T6, rHuman HGF R/c-MET/Fc Chimera, CF (R&D …); assay: as above
[20] = biological target: T13, rHuman EGF R/Fc Chimera, CF (R&D Systems Cat#344-ER) (human, UniProt P00533 25-645); assay: as above
T13 construct: Bought recombinant protein; not shown: Fc of the bought chimera

[21] = biological target: T7, rHuman P-Cadherin/Fc Chimera, CF (R&D …); assay: as above
[22] = biological target: T8, rHuman Erythropoietin R/Fc Chimera, CF …; assay: as above
[23] = biological target: T9, rHuman CD44/Fc Chimera, CF (R&D Systems …); assay: as above
[24] = biological target: T11, rHuman Notch-1/Fc Chimera, CF (R&D …); assay: as above

B1: Fab VH1-46_IGHD6-6*01_IGHJ1*01 S102A/S103P/S104F/H111F (APFF) & L6_IGKJ1*01 S92P (Fab, V domains shown)
VH: QVQLVQSGAEVKKPGASVKVSCKASGYTFTSYYMHWVRQAPGQGLEWMGIINPSGGSTSYAQKFQGRVTMTRDTSTSTVYMELSSLRSEDTAVYYCAREEYAPFSAEYFQFWGQGTLVTVSS
VL: EIVLTQSPATLSLSPGERATLSCRASQSVSSYLAWYQQKPGQAPRLLIYDASNRATGIPARFSGSGSGTDFTLTISSLEPEDFAVYYCQQRPNWPPWTFGQGTKVEIKR
notes: also called APFF / S92P
ECL signal [1]: 282
ECL signal [2]: 242
ECL signal [3]: 346
ECL signal [4]: 391
ECL signal [5]: 354

B2: Fab VH1-46_IGHD6-6*01_IGHJ1*01 S102A/S103P/S104F/H111F (APFF) & L6_IGKJ1*01 S92P (Fab, V domains shown)
VH: QVQLVQSGAEVKKPGASVKVSCKASGYTFTSYYMHWVRQAPGQGLEWMGIINPSGGSTSYAQKFQGRVTMTRDTSTSTVYMELSSLRSEDTAVYYCAREEYAPFSAEYFQFWGQGTLVTVSS
VL: EIVLTQSPATLSLSPGERATLSCRASQSVSSYLAWYQQKPGQAPRLLIYDASNRATGIPARFSGSGSGTDFTLTISSLEPEDFAVYYCQQRPNWPPWTFGQGTKVEIKR
notes: Fab; also called APFF / S92P
ECL signal [6]: 280
ECL signal [7]: 256
ECL signal [8]: 307
ECL signal [9]: 385
ECL signal [10]: 292
ECL signal [11]: 446
ECL signal [12]: 328

B3: Fab VH1-46_IGHD6-6*01_IGHJ1*01 S102A/S103P/S104F/H111F (APFF) & L6_IGKJ1*01 W94M (Fab, V domains shown)
VH: QVQLVQSGAEVKKPGASVKVSCKASGYTFTSYYMHWVRQAPGQGLEWMGIINPSGGSTSYAQKFQGRVTMTRDTSTSTVYMELSSLRSEDTAVYYCAREEYAPFSAEYFQFWGQGTLVTVSS
VL: EIVLTQSPATLSLSPGERATLSCRASQSVSSYLAWYQQKPGQAPRLLIYDASNRATGIPARFSGSGSGTDFTLTISSLEPEDFAVYYCQQRSNMPPWTFGQGTKVEIKR
notes: also called APFF / W94M
ECL signal [13]: 327
ECL signal [14]: 321
ECL signal [15]: 435
ECL signal [16]: 346

B4: Fab VH1-46_IGHD6-6*01_IGHJ1*01 S102A/S103P/S104F/H111F (APFF) & L6_IGKJ1*01 S92Q (Fab, V domains shown)
VH: QVQLVQSGAEVKKPGASVKVSCKASGYTFTSYYMHWVRQAPGQGLEWMGIINPSGGSTSYAQKFQGRVTMTRDTSTSTVYMELSSLRSEDTAVYYCAREEYAPFSAEYFQFWGQGTLVTVSS
VL: EIVLTQSPATLSLSPGERATLSCRASQSVSSYLAWYQQKPGQAPRLLIYDASNRATGIPARFSGSGSGTDFTLTISSLEPEDFAVYYCQQRQNWPPWTFGQGTKVEIKR
notes: Fab; also called APFF / S92Q
ECL signal [17]: 282
ECL signal [18]: 246
ECL signal [19]: 373
ECL signal [20]: 332
ECL signal [21]: 340
ECL signal [22]: 330
ECL signal [23]: 312
ECL signal [24]: 351
